Columns and labels:
Test in all cases: cryo-EM structure
[1] = molecular target: T1, Nse4 (HALO-tagged) (S. cerevisiae, UniProt P43124 1-402, BS3-crosslinked within the holo-complex)
T1 sequence: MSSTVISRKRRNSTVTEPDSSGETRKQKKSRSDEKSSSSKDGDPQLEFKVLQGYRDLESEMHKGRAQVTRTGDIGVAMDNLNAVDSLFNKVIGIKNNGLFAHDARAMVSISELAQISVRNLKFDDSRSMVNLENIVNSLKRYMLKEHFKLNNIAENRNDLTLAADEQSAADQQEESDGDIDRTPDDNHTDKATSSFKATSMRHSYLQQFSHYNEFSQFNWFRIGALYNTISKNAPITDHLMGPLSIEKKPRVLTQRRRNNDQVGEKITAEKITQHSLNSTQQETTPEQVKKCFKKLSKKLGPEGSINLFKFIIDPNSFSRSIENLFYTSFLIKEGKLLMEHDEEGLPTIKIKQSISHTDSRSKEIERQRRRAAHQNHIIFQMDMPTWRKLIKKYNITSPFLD

[2] = molecular target: T2, Smc5 (Walker B mutant E1015Q) (S. cerevisiae, UniProt Q08204 1-1093, E1015Q, BS3-crosslinked within the holo-complex)
T2 sequence: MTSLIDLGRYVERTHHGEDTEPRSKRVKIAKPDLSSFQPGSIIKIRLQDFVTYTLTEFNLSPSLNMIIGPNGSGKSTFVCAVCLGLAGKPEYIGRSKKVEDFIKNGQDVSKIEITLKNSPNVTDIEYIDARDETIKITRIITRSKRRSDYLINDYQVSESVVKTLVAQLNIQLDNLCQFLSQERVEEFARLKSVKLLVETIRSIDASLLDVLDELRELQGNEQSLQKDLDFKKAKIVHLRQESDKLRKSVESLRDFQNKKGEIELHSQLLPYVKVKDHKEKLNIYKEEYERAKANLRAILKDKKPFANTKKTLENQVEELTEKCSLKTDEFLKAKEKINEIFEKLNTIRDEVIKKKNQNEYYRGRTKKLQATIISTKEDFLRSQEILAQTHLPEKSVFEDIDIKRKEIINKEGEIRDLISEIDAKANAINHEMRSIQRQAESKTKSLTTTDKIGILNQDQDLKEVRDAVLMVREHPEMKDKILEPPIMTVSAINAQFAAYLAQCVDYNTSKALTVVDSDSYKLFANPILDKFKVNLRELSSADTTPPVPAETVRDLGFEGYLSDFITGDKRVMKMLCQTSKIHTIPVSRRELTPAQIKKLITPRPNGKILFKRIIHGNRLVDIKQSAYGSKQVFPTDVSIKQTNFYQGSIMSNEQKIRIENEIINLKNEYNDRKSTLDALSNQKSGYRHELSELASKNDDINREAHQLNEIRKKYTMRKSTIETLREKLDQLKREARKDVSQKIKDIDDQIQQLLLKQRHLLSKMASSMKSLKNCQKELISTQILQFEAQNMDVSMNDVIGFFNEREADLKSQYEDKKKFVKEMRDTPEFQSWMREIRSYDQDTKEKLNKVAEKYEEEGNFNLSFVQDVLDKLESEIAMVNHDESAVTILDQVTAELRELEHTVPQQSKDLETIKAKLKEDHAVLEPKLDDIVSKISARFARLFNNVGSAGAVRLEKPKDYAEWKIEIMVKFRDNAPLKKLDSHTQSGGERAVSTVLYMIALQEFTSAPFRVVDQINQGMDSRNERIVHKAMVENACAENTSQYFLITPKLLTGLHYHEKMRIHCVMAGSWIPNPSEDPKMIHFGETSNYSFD

[3] = molecular target: T3, Nse1 (S. cerevisiae, UniProt Q07913 1-336, BS3-crosslinked within the holo-complex)
T3 sequence: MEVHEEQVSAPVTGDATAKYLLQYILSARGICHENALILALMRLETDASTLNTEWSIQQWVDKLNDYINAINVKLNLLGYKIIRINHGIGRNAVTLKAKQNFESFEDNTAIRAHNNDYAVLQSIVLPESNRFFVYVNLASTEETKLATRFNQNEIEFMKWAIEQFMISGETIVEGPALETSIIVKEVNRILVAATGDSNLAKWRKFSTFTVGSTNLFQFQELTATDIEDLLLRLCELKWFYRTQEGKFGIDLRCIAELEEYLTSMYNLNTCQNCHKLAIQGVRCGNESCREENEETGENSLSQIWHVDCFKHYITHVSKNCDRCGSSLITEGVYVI

Measured: binding result

B1: Nse3 (natural protein, S. cerevisiae)
chain: MSSIDNDSDVDLTEDLAVAKIVKENPVARKMVRYILSRGESQNSIITRNKLQSVIHEAAREENIAKPSFSKMFMDINAILYNVYGFELQGLPSKNNMNAGGNGSNSNTNKSMPEPLGHRAQKFILLNNVPHSKNFDDFKILQSAHTYEELIVTGEYIGDDIASGTSNTLESKLSTDRDLVYKGVLSVILCIVFFSKNNILHQELIKFLETFGIPSDGSKIAILNITIEDLIKSLEKREYIVRLEEKSDTDGEVISYRIGRRTQAELGLESLEKLVQEIMGLEKEQTKSLHDDIIKSIGDSYSI
modifications: BS3-crosslinked within the holo-complex
binds: [1] | [2] | [3]

Reference: doi:10.1101/2021.11.25.470006 (bioRxiv, 2021)
